In patent US20180085432A1, “STING (Stimulator of Interferon Genes), A Regulator of Innate Immune Responses” (University of Miami, priority 2008, published 2018):

Tests used:
A366 peptide = test: screening of kinases for S366 of STING (33P-ATP); type: biochemical; conditions: kinase mixed with peptide and 33P-ATP
Procedure: (§1) The activity of 217 protein kinase targets were evaluated against 2 peptides (A366 and S366) as substrate. Protein kinases were mixed with each peptide and ^33P-ATP and then activity (CPM) was measured. The below kinases were identified as phosphorylating S366 in STING. Identification of kinases which target this serine opens up novel avenues for drug discovery. Drugs that target this association may inhibit STING activity and be used for therapeutic purposes to inhibit STING activity. STING over activity may lead to inflammatory diseases which can exacerbate cancer.

S366 peptide = test: screening of kinases for S366 of STING (33P-ATP); type: biochemical; conditions: for Fold inducton: S366 peptide vs A366 peptide; for Activity, S366 peptide: kinase mixed with peptide and 33P-ATP
Procedure: as §1

Molecule	Activity (cpm), kinase mixed with peptide and 33P-ATP (A366 peptide of STING) [cpm]	Activity (cpm), kinase mixed with peptide and 33P-ATP (S366 peptide of STING) [cpm]	Activity, A366 peptide (A366 peptide) [cpm]	Fold inducton (S366 peptide)	Activity, S366 peptide (S366 peptide) [cpm]
NEK6 (from UniProt Q9HC98) (enzyme)	5510	35600	–	–	–
PKC (isoform illegible) (enzyme)	6810	12800	–	–	–
NEK7 (from UniProt Q8TDX7) (enzyme)	3620	19100	–	–	–
NEK7: protein kinase	–	–	3619	5.28	19112
PIM2 (from UniProt Q9P1W9) (enzyme)	1410	3720	–	–	–
NEK6: protein kinase	–	–	5512	6.45	35556
PIM2: protein kinase	–	–	1414	2.63	3715
CK1 (isoform illegible) (enzyme)	15600	26200	–	–	–
GRK7 (enzyme) MVDMGALDNLIANTAYLQARKPSDCDSKELQRRRRSLALPGLQGCAELRQKLSLNFHSLCEQQPIGRRLFRDFLATVPTFRKAATFLEDVQNWELAEEGPTKDSALQGLVATCASAPAPGNPQPFLSQAVATKCQAATTEEERVAAVTLAKAEAMAFLQEQPFKDFVTSAFYDKFLQWKLFEMQPVSDKYFTEFRVLGKGGFGEVCAVQVKNTGKMYACKKLDKKRLKKKGGEKMALLEKEILEKVSSPFIVSLAYAFESKTHLCLVMSLMNGGDLKFHIYNVGTRGLDMSRVIFYSAQIACGMLHLHELGIVYRDMKPENVLLDDLGNCRLSDLGLAVEMKGGKPITQRAGTNGYMAPEILMEKVSYSYPVDWFAMGCSIYEMVAGRTPFKDYKEKVSKEDLKQRTLQDEVKFQHDNFTEEAKDICRLFLAKKPEQRLGSREKSDDPRKHHFFKTINFPRLEAGLIEPPFVPDPSVVYAKDIAEIDDFSEVRGVEFDDKDKQFFKNFATGAVPIAWQEEIIETGLFEELNDPNRPTGCEEGNSSKSGVCLLL	7260	13100	7263	1.81	13124
IKKα (enzyme) MERPPGLRPGAGGPWEMRERLGTGGFGNVCLYQHRELDLKIAIKSCRLELSTKNRERWCHEIQIMKKLNHANVVKACDVPEELNILIHDVPLLAMEYCSGGDLRKLLNKPENCCGLKESQILSLLSDIGSGIRYLHENKIIHRDLKPENIVLQDVGGKIIHKIIDLGYAKDVDQGSLCTSFVGTLQYLAPELFENKPYTATVDYWSFGTMVFECIAGYRPFLHHLQPFTWHEKIKKKDPKCIFACEEMSGEVRFSSHLPQPNSLCSLVVEPMENWLQLMLNWDPQQRGGPVDLTLKQPRCFVLMDHILNLKIVHILNMTSAKIISFLLPPDESLHSLQSRIERETGINTGSQELLSETGISLDPRKPASQCVLDGVRGCDSYMVYLFDKSKTVYEGPFASRSLSDCVNYIVQDSKIQLPIIQLRKVWAEAVHYVSGLKEDYSRLFQGQRAAMLSLLRYNANLTKMKNTLISASQQLKAKLEFFHKSIQLDLERYSEQMTYGISSEKMLKAWKEMEEKAIHYAEVGVIGYLEDQIMSLHAEIMELQKSPYGRRQGDLMESLEQRAIDLYKQLKHRPSDHSYSDSTEMVKIIVHTVQSQDRVLKELFGHLSKLLGCKQKIIDLLPKVEVALSNIKEADNTVMFMQGKRQKEIWHLLKIACTQSSARSLVGSSLEGAVTPQTSAWLPPTSAEHDHSLSCVVTPQDGETSAQMIEENLNCLGHLSTIIHEANEEQGNSMMNLDWSWLTE	2430	6890	2432	2.83	6889
